Tests used:
[1] = target: T1, ZIKV envelope domain III ([..]), polyhistidine-AviTag, made in HEK-293-6E cells (Zika virus (KJ776791)); assay: ELISA on ZIKV EDIII (Table A); settings: remark: other sources report otherwise
[2] = target: T1, ZIKV envelope domain III ([..]), …; assay: ELISA, biotinylated Z004 on ZEDIII, streptavidin-HRP; settings: remark: other sources report otherwise

B1: Z061 (BRA112_36) (antibody, V domains shown)
VH: EVQLVESGGGVVQPGRSLRLSCAASGFTFSISTIHWVRQAPGKGLEYVVVISHDGNTKYYADSVKGRFIISRDNSKNTVFLQMNSLRPVDTAVYYCARGEVGYFDLWGRGTLVTVSS
VL: EIVLTQSPATLSLSPGERATLSCRASQSVSSFLAWYQQKPGQPPRLLIYDASTRATGIPARFSGSGSGTDFTLTISSLEPEDFAVYYCQQRSNWPPITFGQGTRLEIK
EC50 [1]: 0.311 µg/mL

B2: Z050 (BRA138_28) (antibody, V domains shown)
VH: QVQLVQSGAEVKKPGSSVKVSCKAPGGTFSRYSIAWVRQAPGQGLEWMGGINPTFTTPNYAQKFQGRVTITADESTNTAYLDLSSLRSEDTAVYYCARFRYYYESGGYSDASPYYLDYWGQGTLVTVSS
VL: EIVLTQSPATLSLSPGERVTLSCRASQSVSSYLAWYQQKPGQAPRLLIYDASNRATGIPARFTGSGSGTDFTLTISSLEPEDFAVYYCQQRSNWPLTFGGGTKVEIK
EC50 [1]: 0.0303 µg/mL

B3: Z005 (MEX18_13) (antibody, V domains shown)
VH: EVQLLESGGGLVQPGGSLRLSCAASGFTFSSYAMSWVRQAPGKGLEWVSSFSGIDDSTWYADSVKGRFTISRDNSKSTLYLQMNSLRAEDTAVYYCAKDRLVRGFAEVLDYWGRGTLVTVSS
VL: DIQMTQSPSSLSASVGDRVTITCRASQDISKYLAWYQQRPGKVPNLLIYTASTLQSGVPSRFSGSGSGTHFTLTISSLQPEDVATYYCQKYNSVPWTFGQGTKVEIK
EC50 [1]: 0.216 µg/mL

B4: Z059 (MEX84_p4-34) (antibody, V domains shown)
VH: EVQLVQSGAEVKTPGSSVKVSCKTSGGTFSNFAITWVRQAPGQGLEWMGGIIPLFGITNYTQKFQGRVTITTDESKTTAYMDLSGLRSEDTAVYFCARGRDSSGRLLDHWGQGTLVTVSS
VL: EIVMTQSPATLSVSPGERATLSCRASQTVNRNLAWYQQKPGQAPRLLIYAASARATGVPARFSGSGSGTEFTLTISSLQSEDFVVYYCQQYNNWPPLTFGGGTKLEIK
EC50 [1]: 0.61 µg/mL

B5: Z056 (MEX84_p2-94) (antibody, V domains shown)
VH: EVQLVQSGAEVKKPGASVKVSCKASGNTFMGYYFHWVRQAPGQGLEWMGWINPNSGHANIAQTFQGRVTMTRDPSITTAYMELSRLRSDDTAVFYCARGGMLGQLWALDNWGQGTLVTVSS
VL: DIQMTQSPSTLSASVGDRVTITCRASQSISHWLAWYQQRPGEAPKLLIYQASTLESGVPSRFSGSGSGTEFTLSISSLQPDDFATYYCQQYQSSPYTFGQGTKLEIK
EC50 [1]: 0.982 µg/mL

B6: Z016 (MEX84_p2-55) (antibody, V domains shown)
VH: QVQLVQSGAEVKKPGASVKLSCKASGYTFTSYYVHWVRQAPGQGLEWMGIINPGNNFVSFAQNFYDRATMTRDTSTNTVYMELTNLQSEDTAVYYCARTLVAPSAQSMYYFDFWGQGTLVTVSS
VL: EIVLTQSPGTLSLSPGERGTLSCRASQYITTGHFAWYQQKPGRAPRLLIYGASVRATGVPDRFSGSGAETDFTLTISRLDPEDVGVYYCQQYGSSPVTFGPGTKVDIK
EC50 [1]: 0.0724 µg/mL

B7: Z057 (MEX84_p4-54) (antibody, V domains shown)
VH: EVQLVQSGAEVKRPGASVKVSCKASGYTFADYYIHWVRQAPGLGLEWMGWINPKTGFSHYEQTFQGRVTMARDTSIPAAYMELSSLKSDDTAIYYCARGGRINVAEALRYWGQGSLVTVSS
VL: DIQMTQSPSTLSTFVGDRVTITCRASQTIGDWLAWYQQKPGKAPKLLISKATRLESGVPSRFSGSGSETEFSLTINSLQPDDVAAYYCQQYMSYPWTFGQGTKLEIK
EC50 [1]: 0.0828 µg/mL

B8: Z055 (MEX84_p4-61) (antibody, V domains shown)
VH: EVQLVQSGAEVKKPGASVKVSCKASGYTFSGYYIHWLRQAPGQGLEWMGWINSNSGGADSGPRFHGRVTMTRDTSINTAYLELTNLRSDDTAVYYCARRTYYDTRFPYWYFDLWGRGTLVTVSS
VL: AIRMTQSPSSLSASVGDRVTITCRASQDIGSYLNWYQQKPGKAPNVLISAASTLQSGVPSRISGIGSGTDFTLTISSLQPEDFATYYCQQSLSAPYTFGQGTKLEIK
EC50 [1]: 1.88 µg/mL

B9: Z052 (BRA138_62) (antibody, V domains shown)
VH: QVQLQESGPGLVKPSQTLSLTCTVSGGSITGGVYYWNWIRHHPGKGLEWIGYMFYSGDTDYNPSLRSRVTISGDTSKNKFSLNLNSVTAADTAVYYCARAGFDYGSPVSAFDIWGQGTLVTVSS
VL: EIVLTQSPATLSLSPGERATLSCRASQSVSSTYLVWYQQKPGQAPRLLIYGASSRATGIPDRFSGSGSGTDFTLTISRLEPEDFAVYFCQQYAHSPRGYTFGQGTKLEIK
EC50 [1]: 0.0131 µg/mL

B10: Z002 (MEX18_27) (antibody, V domains shown)
VH: EVQLLESGGGLVQPGGSLRLSCATSGFTFSTYAMSWVRQAPGKGLEWVSSFSGVDDSTYYAESVKGRFTISRDNSKNTVYLQMTRLRAEDTAVYYCAKDRGPRGVGELFDSWGQGTLVTVSS
VL: DIQMTQSPSTLSASVGDRVTMTCRASQSINRWLAWYQQKPGKAPKLLIYTTSTLKSGVPSRFSGSGSGTEFTLTISSLQPDDFATYYCQHFHSVPWTFGQGTKVEIK
EC50 [1]: 0.0252 µg/mL

B11: Z034 (BRA112_09) (antibody, V domains shown)
VH: EVQLLESGGGLAQPGGSLRLSCETSGFTFRSYGMGWVRQAPGKGLEWVSSIYISGDSTYYAASVKGRFTISRDNSKSTLYLQMDRLTAEDTAVYYCVRDRIQGGFGELYRYWGQGTLVTVSS
VL: DIQMTQSPSTLSASVGDRVTMTCRASQSVNKWLAWYQQKPGKAPKLLIYETSILESGVSSRFSGSGSGTEFTLTISSLQPDDFATYYCQHYHGYPWTFGQGTKVEIK
EC50 [1]: 0.0235 µg/mL

B12: Z004 (MEX18_89) (antibody, V domains shown)
VH: EVQLLESGGGLVQPGGSLRLTCATSGFTFRDYAMSWVRQAPGKGLEWVSSYSGIDDSTYYADSVKGRFTISRDNSKSTLSLHMNSLRAEDSALYFCAKDRGPRGVGELFDSWGQGTLVTVSS
VL: DIQMTQSPSTLSASVGDRVTITCRASQSISKWLAWYQQKPGKAPKLLIYTTSTLKSGVPSRFSGSGSGTEFTLTISSLQPDDFATYYCQHFYSVPWTFGQGTKVEIK
EC50 [2]: 0.16 µg/mL

B13: Z003 (MEX18_58) (antibody, V domains shown)
VH: EVQLLESGGGLVQPGGSLRLSCATSGFTFTTFAMSWVRQAPGKGLEWVSSISGADDSTYYAASVKGRFTISRDNSRSTLFLQMNSLRAEDTAVYYCAKDRGPRGVGELFDSWGQGTLVTVSS
VL: DIQMTQSPSTLSASVGDRVTITCRASQSISKWLAWYQQKPGKAPRLLIYTTSTLKSGVPSRFSGSGSGTEFTLTISSLQPDDFATYYCQHFFSVPWTFGQGTKVEIK
EC50 [1]: 0.0255 µg/mL

B14: Z011 (MEX105_15) (antibody, V domains shown)
VH: EVQLLESGGGLVQPGGSLRLSCAASGFTFRTYAMSWVRQPPGKGLEWVSSISAREDSTYFAASVRGRFTISRDNSKNTLYLQMNNLRAEDTALYYCAKDRLQLGVGELYESWGQGTLVTVSS
VL: DIQMTQSPSTLSASVGDRVTITCRASQNINSWLAWYQQKPGKAPKLLIYMASSLQSGVPSRFSGSGSGTEFTLTVSSLQPDDFATYYCQHYHSYPWTFGQGTKVEIK
EC50 [1]: 0.038 µg/mL

B15: Z053 (BRA138_65) (antibody, V domains shown)
VH: QLQLQESGPGLVKPSETLSLTCTVSGGSISSYNYYWGWIRQPPGKGLEFIGSIYYTGSTYYNPSLRSRVTISVDTSKNQFSLKLTSVTAADTAVYYCARHGPGMGHNWYFDLWGRGTLVTVSS
VL: EIVLTQSPATLSLSPGERATLSCRASQSISSYLAWYQQKPGQAPRLLIYDASNRAPGIPARFSGSGSGTDFTLTISSLEPEDFAVYYCQQRSTWLTFGGGTKVEIK
EC50 [1]: 1.68 µg/mL

B16: Z036 (BRA112_91) (antibody, V domains shown)
VH: EVQLLESGGDLVQPGGSLRLSCAASGFTFSTYGMAWVRQAPGKGLEWLSSISSVDDSKYYAASVKGRFTISRDNSRNTLYLHMNSLRVDDTAVYYCAKDRIPHGLGELYANWGQGTLVTVSS
VL: DIQMTQSPSTLSASVGDRVTITCRASQSISGWLAWYQQKPGKAPRLLMHKASNLYSGVPSRFSGSGSGTEFTLTISSLQPDDFATYYCQHYHSYPYTFGQGTKVEIK
EC50 [1]: 0.0172 µg/mL

B17: Z062 (BRA112_70) (antibody, V domains shown)
VH: EVQLVESGGGVVQPGRSLRLSCAASGFSFSSHAMYWVRQAPGKGLEWVAIVSYDGSTKNYADSVKGRFTISRDNSKNTIYLHLNSLRAEDTAVYFCAREVDGIYGYLHYWGQGTLVTVSS
VL: EIVLTQSPATLSLSPGERATLSCRARQNVRNFLAWYQQKPGQAPRLLIYDASNRATDIPARFSGSGSGTDFTLTISSLEPEDFAVYYCQQRSYSITFGQGTRLEIK
EC50 [1]: 0.208 µg/mL

B18: Z051 (BRA138_59) (antibody, V domains shown)
VH: QVQLQESGPGLVKPSQTLSLTCTVSGVSISSGGYYYSWFRQLPGKGLEWIGHIYYTGNTHYNPSLRSRLTISVDTSKNQFSLKLSSVTAADTARYYCARAWCEYAAYCWFDPWGRGTLVTVSS
VL: EIVLTQSPGTLSLSPGERATLSCRASQSVTSSYLAWYQHKPGQAPRLLIYGASSRAPGIPDRFSGSGSGTDFTLTISRLEPEDFAVYWCQQYGRSPFTFGQGTKLEIK
EC50 [1]: 1.86 µg/mL

B19: Z007 (MEX105_50) (antibody, V domains shown)
VH: EVQLLESGGGLVRPGGSLRLSCTASGFTFRRYAMAWVRQAPGKGLEWVSLIYDGDDSTYYAKSVKGRFAISRDNSKNTLSLQMNSLRAEDTAVYYCVKDRDNGWSSIVDWGQGTLVTVSS
VL: DIQMTQSPSTLSASVGDRVTITCRASHSISGWLAWYQQKPGKAPKLLIYQASILESGVPSRFSGSGSGTEFTLTIGSLQPEDFATYFCQQYSTFWTFGQGTKVEIK
EC50 [1]: 0.0346 µg/mL

B20: Z008 (MEX105_60) (antibody, V domains shown)
VH: EVQLLESGGGLVRPGGSLRLSCTASGFTFRRFAMAWVRQAPGKGLEWVSLIWNGDDSTYYAESVRGRFTISRDNSHNTLSLQMRSLRAEDTAIYYCVKDRDNGWSSIVDWGQGTLVTVSS
VL: DIQMTQSPSTLSASVGDRVTITCRASQTIGNWLAWYQQKPGKAPKLLIYQASVLESGVPSRFSGSGSGTEFTLTISSLQPEDFATYFCQQYSTFWTFGQGTKVEIK
EC50 [1]: 0.0326 µg/mL

B21: Z009 (MEX105_64) (antibody, V domains shown)
VH: EVQLLESGGGLVRPGGSLRLSCTASGFTFRRYAMAWVRQAPGKGLEWVSLIYNGDDSTYYAESVKGRFTVSRDNSQNTLSLQMNSLRAEDTAIYYCVRDRDNGWSSIVDWGQGTLVTVSS
VL: DIQMTQSPSTLSASVGDRVTITCRASRTIGSWLAWYQQKPGKAPKLLIYQASILEGGVPSRFSGSVSGTEFTLTIRSLQPEDFATYFCQQYSTFWTFGQGTKVEIK
EC50 [1]: 0.0284 µg/mL
